Laboratory results taken from patent US20210355220A1.

What was measured:
Assay in all cases: flow cytometry on transfected HEK293 cells, background control
[1] = molecular target: hPD1 on HEK293 cells (human) (UniProt Q15116)
[2] = molecular target: hICOS on HEK293 cells (human) (UniProt Q9Y6W8)
[3] = molecular target: hPDL2 on HEK293 cells (human) (UniProt Q9BQ51)
[4] = molecular target: human CTLA-4 expressed on cells (human) (UniProt P16410)
[5] = molecular target: hCD28 on HEK293 cells (human) (UniProt P10747)
[6] = molecular target: hBTLA on HEK293 cells (human) (UniProt Q7Z6A9)
[7] = molecular target: hPDL1 on HEK293 cells (human) (UniProt Q9NZQ7)
hPDL1 on HEK293 cells (human), sequence (Q9NZQ7 19-290): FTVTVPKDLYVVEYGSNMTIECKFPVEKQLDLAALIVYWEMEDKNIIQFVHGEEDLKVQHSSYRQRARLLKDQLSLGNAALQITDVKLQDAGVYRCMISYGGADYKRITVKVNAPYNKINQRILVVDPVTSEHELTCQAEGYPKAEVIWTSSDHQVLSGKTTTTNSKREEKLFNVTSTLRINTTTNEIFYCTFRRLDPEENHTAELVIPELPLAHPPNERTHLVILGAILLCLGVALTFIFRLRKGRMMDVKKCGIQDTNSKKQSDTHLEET

hPD1 on HEK293 cells (human), sequence (Q15116 25-288): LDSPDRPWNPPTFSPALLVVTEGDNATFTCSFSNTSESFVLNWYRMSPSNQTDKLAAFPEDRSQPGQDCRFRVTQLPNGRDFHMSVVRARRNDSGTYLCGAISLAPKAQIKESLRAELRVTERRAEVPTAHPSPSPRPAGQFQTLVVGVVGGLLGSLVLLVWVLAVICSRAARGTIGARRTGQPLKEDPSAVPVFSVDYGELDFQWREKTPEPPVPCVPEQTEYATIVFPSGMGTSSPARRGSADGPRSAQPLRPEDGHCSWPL
hPDL2 on HEK293 cells (human), sequence (Q9BQ51 20-273): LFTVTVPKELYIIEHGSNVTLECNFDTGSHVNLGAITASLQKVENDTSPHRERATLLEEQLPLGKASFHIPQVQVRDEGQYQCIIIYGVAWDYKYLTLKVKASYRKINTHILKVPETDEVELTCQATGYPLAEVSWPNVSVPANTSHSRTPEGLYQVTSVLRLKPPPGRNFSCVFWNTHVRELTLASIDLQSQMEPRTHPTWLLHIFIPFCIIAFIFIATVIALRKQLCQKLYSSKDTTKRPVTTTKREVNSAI
human CTLA-4 expressed on cells (human), sequence (P16410 36-223): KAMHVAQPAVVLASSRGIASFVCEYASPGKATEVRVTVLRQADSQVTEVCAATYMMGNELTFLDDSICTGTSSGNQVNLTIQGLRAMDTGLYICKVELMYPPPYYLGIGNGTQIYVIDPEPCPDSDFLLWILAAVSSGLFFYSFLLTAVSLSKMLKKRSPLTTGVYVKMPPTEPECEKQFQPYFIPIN
hICOS on HEK293 cells (human), sequence (Q9Y6W8 21-199): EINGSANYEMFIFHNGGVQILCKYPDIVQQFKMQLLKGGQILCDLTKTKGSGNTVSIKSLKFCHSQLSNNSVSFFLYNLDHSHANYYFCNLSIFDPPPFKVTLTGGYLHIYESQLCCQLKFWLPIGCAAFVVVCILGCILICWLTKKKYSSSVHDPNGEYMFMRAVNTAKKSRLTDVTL

Secondary Antibody only (anti-human labeled secondary antibody)
MFI [1]: 74 MFI | MFI [2]: 67 MFI | MFI [3]: 71 MFI | MFI [4]: 78 MFI | MFI [5]: 69 MFI | MFI [6]: 82 MFI | MFI [7]: 68 MFI
